Test results: IntAct's records for PubMed 18273061

B1: Vascular endothelial growth factor receptor 1 (Homo sapiens), P17948 (parent)
chain: MVSYWDTGVLLCALLSCLLLTGSSSGSKLKDPELSLKGTQHIMQAGQTLHLQCRGEAAHKWSLPEMVSKESERLSITKSACGRNGKQFCSTLTLNTAQANHTGFYSCKYLAVPTSKKKETESAIYIFISDTGRPFVEMYSEIPEIIHMTEGRELVIPCRVTSPNITVTLKKFPLDTLIPDGKRIIWDSRKGFIISNATYKEIGLLTCEATVNGHLYKTNYLTHRQTNTIIDVQISTPRPVKLLRGHTLVLNCTATTPLNTRVQMTWSYPDEKNKRASVRRRIDQSNSHANIFYSVLTIDKMQNKDKGLYTCRVRSGPSFKSVNTSVHIYDKAFITVKHRKQQVLETVAGKRSYRLSMKVKAFPSPEVVWLKDGLPATEKSARYLTRGYSLIIKDVTEEDAGNYTILLSIKQSNVFKNLTATLIVNVKPQIYEKAVSSFPDPALYPLGSRQILTCTAYGIPQPTIKWFWHPCNHNHSEARCDFCSNNEESFILDADSNMGNRIESITQRMAIIEGKNKMASTLVVADSRISGIYICIASNKVGTVGRNISFYITDVPNGFHVNLEKMPTEGEDLKLSCTVNKFLYRDVTWILLRTVNNRTMHYSISKQKMAITKEHSITLNLTIMNVSLQDSGTYACRARNVYTGEEILQKKEITIRDQEAPYLLRNLSDHTVAISSSTTLDCHANGVPEPQITWFKNNHKIQQEPGIILGPGSSTLFIERVTEEDEGVYHCKATNQKGSVESSAYLTVQGTSDKSNLELITLTCTCVAATLFWLLLTLFIRKMKRSSSEIKTDYLSIIMDPDEVPLDEQCERLPYDASKWEFARERLKLGKSLGRGAFGKVVQASAFGIKKSPTCRTVAVKMLKEGATASEYKALMTELKILTHIGHHLNVVNLLGACTKQGGPLMVIVEYCKYGNLSNYLKSKRDLFFLNKDAALHMEPKKEKMEPGLEQGKKPRLDSVTSSESFASSGFQEDKSLSDVEEEEDSDGFYKEPITMEDLISYSFQVARGMEFLSSRKCIHRDLAARNILLSENNVVKICDFGLARDIYKNPDYVRKGDTRLPLKWMAPESIFDKIYSTKSDVWSYGVLLWEIFSLGGSPYPGVQMDEDFCSRLREGMRMRAPEYSTPEIYQIMLDCWHRDPKERPRFAELVEKLGDLLQANVQQDGKDYIPINAILTGNSGFTYSTPAFSEDFFKESISAPKFNSGSSDDVRYVNAFKFMSLERIKTFEELLPNATSMFDDYQGDSSTLLASPMLKRFTWTDSKPKASLKIDLRVTSKSKESGLSDVSRPSFCHSSCGHVSEGKRRFTYDHAELERKIACCSPPPDYNSVVLYSTPPI
B2: Protein sprouty homolog 2 (Homo sapiens), O43597 (parent)
chain: MEARAQSGNGSQPLLQTPRDGGRQRGEPDPRDALTQQVHVLSLDQIRAIRNTNEYTEGPTVVPRPGLKPAPRPSTQHKHERLHGLPEHRQPPRLQHSQVHSSARAPLSRSISTVSSGSRSSTRTSTSSSSSEQRLLGSSFSSGPVADGIIRVQPKSELKPGELKPLSKEDLGLHAYRCEDCGKCKCKECTYPRPLPSDWICDKQCLCSAQNVIDYGTCVCCVKGLFYHCSNDDEDNCADNPCSCSQSHCCTRWSAMGVMSLFLPCLWCYLPAKGCLKLCQGCYDRVNRPGCRCKNSNTVCCKVPTVPPRNFEKPT

Variants of: B1
Settings: with cbl_human CBL

Variant	effect of a mutation on the interaction
L1332R	increasing interaction

Variants of: B1
Settings: with cbl_human CBL
Remark: another data set of the same source

Variant	effect of a mutation on the interaction
V1331N	increasing interaction

Variants of: B2
Settings: with cbl_human CBL

Variant	effect of a mutation on the interaction
MEARAQSGNGSQPLLQTPRDGGRQRGEPDPRDALTQQVHVLSLDQIRAIRNTNEFTEGPTVVPRPGLKPAPRPSTQHKHERLHGLPEHRQPPRLQHSQVHSSARAPLSRSISTVSSGSRSSTRTSTSSSSSEQRLLGSSFSSGPVADGIIRVQPKSELKPGELKPLSKEDLGLHAYRCEDCGKCKCKECTYPRPLPSDWICDKQCLCSAQNVIDYGTCVCCVKGLFYHCSNDDEDNCADNPCSCSQSHCCTRWSAMGVMSLFLPCLWCYLPAKGCLKLCQGCYDRVNRPGCRCKNSNTVCCKVPTVPPRNFEKPT [Y55F]	disrupting interaction

Variants of: B2
Settings: with cbl_human CBL
Remark: another data set of the same source

Variant	effect of a mutation on the interaction
MEARAQSGNGSQPLLQTPRDGGRQRGEPDPRDALTQQVHVLSLDQIRAIRNTNEYTEGATVVPRPGLKPAPRPSTQHKHERLHGLPEHRQPPRLQHSQVHSSARAPLSRSISTVSSGSRSSTRTSTSSSSSEQRLLGSSFSSGPVADGIIRVQPKSELKPGELKPLSKEDLGLHAYRCEDCGKCKCKECTYPRPLPSDWICDKQCLCSAQNVIDYGTCVCCVKGLFYHCSNDDEDNCADNPCSCSQSHCCTRWSAMGVMSLFLPCLWCYLPAKGCLKLCQGCYDRVNRPGCRCKNSNTVCCKVPTVPPRNFEKPT [P59A]	decreasing interaction

Variants of: B2
Settings: with cbl_human CBL
Remark: another data set of the same source

Variant	effect of a mutation on the interaction
MEARAQSGNGSQPLLQTPRDGGRQRGEPDPRDALTQQVHVLSLDQIRAIRNTAEYTEGPTVVPRPGLKPAPRPSTQHKHERLHGLPEHRQPPRLQHSQVHSSARAPLSRSISTVSSGSRSSTRTSTSSSSSEQRLLGSSFSSGPVADGIIRVQPKSELKPGELKPLSKEDLGLHAYRCEDCGKCKCKECTYPRPLPSDWICDKQCLCSAQNVIDYGTCVCCVKGLFYHCSNDDEDNCADNPCSCSQSHCCTRWSAMGVMSLFLPCLWCYLPAKGCLKLCQGCYDRVNRPGCRCKNSNTVCCKVPTVPPRNFEKPT [N53A]	disrupting interaction
